Measurements as given in publication PMC3832651, “Characterization of Neutral Lipase BT-1 Isolated from the Labial Gland of Bombus terrestris Males” (PLoS ONE, 2013).

Substrate: CCCCCCCCCCCC(=O)Oc1ccc([N+](=O)[O-])cc1
Assay: purified protein
Type: biochemical, Bombus terrestris
Conditions: 50 mM Tris/HCl, pH 8.2, 25°C, p-NPL 0.05-0.4 mM added in 2-propanol

B1: lipase BT-1 (Bombus terrestris) (protein)
chain: VICDVEDTLHVSRKIRLKIYKGNSSYFSSTESMVMNPGNIADDILPDRDSILYIHGFLENTEAENVRVIIRAYLDKGDVNVIVLDWGEIAFNINYVYVSSQVVTIAKAVAESLKKLVDLIDLDTLHVIGHSLGAHIAGNIGRYANINLSRITGLDPALPLFYPSTCHVRSTDAEAVVILHTDGGFYGTATNTGTIDFYVNGGSSVQPGCPIIFGGEFCSHQRSTRIYAESLLNPKAFPAHKCLNEIADTEEVYFGDSTPKDIYGTYCFNTNAKPPYGKTI
notes: native, purified from labial gland (cephalic part) of 2- to 3-day-old males on octyl-agarose, Triton X-100 desorption; ~30 kDa on SDS-PAGE; identified by MS (18 peptides); catalytic triad Ser155, Asp179, His244
Km: 1.1 ± 0.3 µM
Vmax: 0.15 µmol/min/mg
